Measured values taken from the supplement of paper PMC9170038.

Tested on: MS2 coat protein
Test: apparent KD of MS2 coat protein; designed switch direction (-1 OFF switch, 1 ON switch): -1; higher = weaker reporter binding
Method in brief: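 Stalled E. coli RNA polymerase transcribed designed RNA switches on Illumina chips, which were then titrated with SNAP-549-labelled MS2 coat protein, doubling from 0.7 or 1.5 nM to 3 µM. Steps lasted from 0.8–1.5 h at the lowest concentration to 10–20 min at the highest. The apparent KD is each design's median over clusters of curve-fitted normalised fluorescence.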

[1] = input ligand: microRNA oligo, concentration not stated
[2] = Eterna round: R95, input ligand: microRNA oligo, concentration not stated
[3] = Eterna round: R95, input ligand: FMN 200 uM
[4] = Eterna round: R95, input ligand: none

Sequence | apparent KD of MS2 coat protein [1] [nM] | apparent KD of MS2 coat protein (input ligand: FMN 200 uM) [nM] | apparent KD of MS2 coat protein (input ligand: none) [nM] | apparent KD of MS2 coat protein [2] [nM] | apparent KD of MS2 coat protein [3] [nM] | apparent KD of MS2 coat protein [4] [nM]
UAUAUAUAGUAAGGAUAUGUAUUAAUUGUAUAAACAGAAGGUACUGACAUGAGGAUCACCCAUGUUUUAGUGUGGGCAUGUAGA [JMF's solution 81] (Eterna round: R96, puzzle: Exclusion NG 1) | 71.7 | – | – | – | – | –
UAUAUAUAGUAAGGAUAUGUAUUAAUUUUACAAACAGAAGGUACUGACAUGAGGAUCACCCAUGUUUUAGUGUGGGCAUGUAGA [JMF's solution 89] (Eterna round: R96, puzzle: Exclusion NG 1) | 45.9 | – | – | – | – | –
UAUAUAUAGUAAGGAUAUGUAUUAAUUUUAUCAACAGAAGGUACUGACAUGAGGAUCACCCAUGUUUUAGUGUGGGCAUGUAGA [JMF's solution 92] (Eterna round: R96, puzzle: Exclusion NG 1) | 65.2 | – | – | – | – | –
UAUAUAUAGUAAGGAUAUGUAUUUAUUUCAUAAACAGAAGGUACUGACAUGAGGAUCACCCAUGUUUUAGUGUGGGCAUGUAGA [JMF's solution 21] (Eterna round: R96, puzzle: Exclusion NG 1) | 62.1 | – | – | – | – | –
UAUAUAUAGUAAGGAUAUGUAUUUAUUUUGUAAACAGAAGGUACUGACAUGAGGAUCACCCAUGUUUUAGUGUGGGCAUGUAGA [JMF's solution 22] (Eterna round: R96, puzzle: Exclusion NG 1) | 78.5 | 147 | 141 | – | – | –
UAUAUGUCAGGAUAUUAGUAGUAAAUGAAUAAAAUUAUUACUGAGAAGGGACAUGAGGAUCACCCAUGUGCCUC [Mat - Exclusion 4 - Eli Mod - D24] (Eterna round: R97, puzzle: Exclusion 4) | – | 387 | 37.4 | – | – | –
UAUAUGUCAGGAUAUUAGUAGUGGAUGAAUAAGAUUAUUGCUGAGAAGGGACAUGAGGAUCACCCAUGUUCCUC [JR_Ex4_Sub002] (Eterna round: R97, puzzle: Exclusion 4) | – | 27.5 | 18.5 | – | – | –
UAUAUGUGAGGAUAUCAGGUGUGCUAGCGAACUGGUACAUCUGAGAAGGCACAUGAGGAUCACCCAUGUAUCUU [Mat - Exclusion 4 - Mod of JL - D46] (puzzle: Exclusion 4) | – | – | – | 26.3 | – | –
UAUCAGCAAGUGAGGAUAUAGAGAACGGUUGUUGGCUAGAAGGCACUUGAGGAUCACCCAAGUCGCAAAGUGGC [Mamausonbe] (Eterna round: R97, puzzle: Brourd's mod of Exclusion 4) | – | 134 | 29.3 | – | – | –
UAUCAUCAUGUAGGAUAUGCGUGGCAAAGCUAUGCAGAAGGACAUGAGGAUCACCCAUGUUCUAGCGUCUGCGUACAGAUGCUA [Mat - Exclusion NG 1 - Mod of JL - D74] (Eterna round: R96, puzzle: Exclusion NG 1) | 45.2 | 247 | 68.7 | – | – | –
UAUCGGCGGACCCAGGCUUUUUGCUCGUCUUAUGCUAUGACAUGAGGAUCACCCAUGUGGUGGUGGUCCGUUGUAGU [JL ViennaUCT Bitein mod 11] (puzzle: Sensor v3, turn-off variant 2) | – | – | – | 11.3 | 21.1 | 19.5
UAUCGGGACUGAGGAUAUUCGUUCGAACGCGAAGAAGAAGGUAGUGUCAGGGACAUGAGGAUCACCCAUGUGAUUUCAGUCCCA [JL ViennaUCT Erinle mod 5] (Eterna round: R96, puzzle: Exclusion NG 1) | 56.1 | 98.2 | 99 | – | – | –
UAUCUACAUGAGGAUCACCCAUGUGAGGAUAUCAAAACCAGAGCGGAUCUCUGGCCCAUGAGAAGGUACAUGGU [ElNandoxlusion 5 - Jieux - Exclusion 1] (Eterna round: R97, puzzle: Exclusion 1) | – | 59.2 | 20 | – | – | –
UAUGGUUAAGUCAGGAUAUGCACGAAGAGAACAAAGCAGAAGGGACAUGAGGAUCACCCAUGUAAAGUCGUGUU [Ex4 #76] (Eterna round: R97, puzzle: Brourd's mod of Exclusion 4) | – | 28.4 | 32 | – | – | –
UAUUAAACAAGCAGAUCCCACAUGAGGAUCACCCAUGUGCUCGUCUUAUAAGGUACUGUGACGAGAGUCACGGUACC [Mat - Sensor, turn-off var - Eli Mod - D63] (Eterna round: R97, puzzle: Sensor, turn-off variant 1) | – | 42.5 | 45.2 | – | – | –
UAUUAACAAGCAAGAUCCUACAUGAGGAUCACCCAUGUGCUCGUCUUGUAAGGUACUGUGACGAAAGUCACGGUACC [Sensor 3, v1 - 71] (puzzle: Sensor v3, turn-off variant 1) | – | – | – | 232 | 22 | 18.9

Sequence | apparent KD of MS2 coat protein [1] [nM] | apparent KD of MS2 coat protein (input ligand: FMN 200 uM) [nM] | apparent KD of MS2 coat protein (input ligand: none) [nM] | apparent KD of MS2 coat protein [2] [nM] | apparent KD of MS2 coat protein [3] [nM] | apparent KD of MS2 coat protein [4] [nM]
UAUUAACAAGCAAGGUCCCACAUGAGGAUCACCCAUGUGCUCGUCUUAUAAGGUACUGUGACGAAAGUCACGGUACC [Sensor 3, v1 - 81] (puzzle: Sensor v3, turn-off variant 1) | – | – | – | 469 | 32.4 | 33.6
UAUUAAGCAAGCAGAUCCCACAUGAGGAUCACCCAUGUGCUCGUCUUAUAAGGUACUGUGACGAAAGUCACGGUACC [Sensor 3, v1 - 91 v12] (Eterna round: R97, puzzle: Sensor, turn-off variant 1) | – | 126 | 156 | – | – | –
UAUUACUCAGGAUAUAUGAUGUGAAACAUGAGGAUCACCCAUGUAAUAUUAUGGAUGUAAAUAGAAGGGAGAUAAU [Mat - Exclusion 5 - JL mod - D21] (puzzle: Exclusion 5) | – | – | – | 51.1 | 37.1 | 56.9
UAUUAGCAAGCAAGAUCCUACAUGAGGAUCACCCAUGUGCUCGUCUUAAACUCAGAAUUACUGAGAGCUCGUCUUAU [Winner reversed engineered 24] (Eterna round: R97, puzzle: Sensor, turn-off variant 1) | – | 443 | 515 | – | – | –
UAUUAGCAAGCCAGAUCCCACAUGAGGAUCACCCAUGUGCUCGUCUUAUAAGGUACUGUGACGAAAGUCACGGUACC [Sensor 3, v1 - 93] (puzzle: Sensor v3, turn-off variant 1) | – | – | – | 1120 | 137 | 184
UAUUAGCAAGCGAGAUCCCACAUGAGGAUCACCCAUGUAAAAGCAUCCAGAAUUACUGGGUGCAAAGCUCGUCUUAU [Winner reversed engineered 7] (Eterna round: R97, puzzle: Sensor, turn-off variant 1) | – | 30.1 | 24.8 | – | – | –
UAUUAGCAAGCGAGAUCCCACAUGAGGAUCACCCAUGUAAAGCAUCCAGAAUUACUGGGUGCAAAAGCUCGUCUUUA [Winner reversed engineered 5] (Eterna round: R97, puzzle: Sensor, turn-off variant 1) | – | 28.7 | 40 | – | – | –
UAUUAGCAAGCGAGAUCCCACAUGAGGAUCACCCAUGUGCUCGUCUUAUAAAGUACUGUGACGAAAGUCACGGUACU [Mat - Sensor, turn-off var - Eli Mod - D7] (Eterna round: R97, puzzle: Sensor, turn-off variant 1) | – | 15.2 | 14.6 | – | – | –
UAUUAGCAAGCGAGAUCCCACAUGAGGAUCACCCAUGUGCUCGUCUUAUAAAGUACUGUGACGAUAGUCACGGUACA [Mat - Sensor, turn-off var - Eli Mod - D8] (Eterna round: R97, puzzle: Sensor, turn-off variant 1) | – | 16.6 | 15.6 | – | – | –
UAUUAGCAAGUAAGAUCCCACAUGAGGAUCACCCAUGUGCUCGUCAUAUCAGGUACUGUGAGGAAACUCACGGUACG [Sensor-V1 #86] (Eterna round: R97, puzzle: Sensor, turn-off variant 1) | – | 127 | 169 | – | – | –
UAUUAGCAAGUGAGAUCCGACAUGAGGAUCACCCAUGUGCUCGUCUUAUAAGGUAAUAUGACAAAAGUCAUAUUACC [Elimod 5 - Jieux - Sensor, turn-off variant 1] (Eterna round: R97, puzzle: Sensor, turn-off variant 1) | – | 301 | 293 | – | – | –
UAUUAGUAAGGAUAUCCCACGUAGGACUUCGGUCCUACGUGGGAGAAGGUACAUGAGGAUCACCCAUGUCUAUU [Mod of Fisker 13 - Jieux - Exclusion 4] (Eterna round: R97, puzzle: Exclusion 4) | – | 16.6 | 14.9 | – | – | –
UAUUAGUAAGGAUAUGCGACGUAGGACGAAAGUCCUACGUCGCAGAAGGUACAUGAGGAUCACCCAUGUCUAUU [Mod of Fisker 11 - Jieux - Exclusion 4] (Eterna round: R97, puzzle: Exclusion 4) | – | 20.5 | 18.7 | – | – | –
UAUUAUCAAGCAAGAUCCUACAUGAGGAUCACCCAUGUGCUCGUCUUAUAAGGUACUGUGACGAAAGUCACGGUACC [Sensor 3, v1 - 73] (puzzle: Sensor v3, turn-off variant 1) | – | – | – | 107 | 107 | 153
UAUUAUCAAGUAAGAUCCUACAUGAGGAUCACCCAUGUGCUCGUCUUAUAAGGUACUGUGACGAAAGUCACGGUACC [Sensor 3, v1 - 74] (puzzle: Sensor v3, turn-off variant 1) | – | – | – | 332 | 31.3 | 33.8
UAUUCGCAAGCAAAUGGGUACAUGAGGAUCACCCAUGUGCUCGUCUUAUAAGGUACUGUGACGAAAGUCACGGUACC [mod--Eli9] (Eterna round: R97, puzzle: Sensor, turn-off variant 1) | – | 20.9 | 20.3 | – | – | –
